Laboratory results from US20260069689A1 (Regeneron, published 2026).
Residue numbers refer to the chain shown, from its start.

B1: mAb14258 (antibody, V domains shown)
VH: QLQLQESGPGLVKPSETLSLICTGSGDSISSSHYYWGWIRQPPGKGLEWIGSTYFSGSTYYNPSLKSRVSISVDTSKNQVSLKLISVTAADTAVYYCAREMGATLGDYWGPGTLVTVSS
VL: QSVLTQPPSASGTPGQRVTISCSGSSSNIGNNYVYWYQQFPGTTPRLLIYRNNERPSGVPDRFSGSKSGTSASLVISGLRSEDEADYYCAAWDDSLSAHYVFGTGTKVTVLG
B2: mAb14315 (antibody, V domains shown)
VH: QVQLVQSGAEVKKPGSSVKVSCKASGDTFSTYAINWVRQAPGQGLEWMGRFIHIFGTANYAQKFQGRVTITADESTSTAYMELRSLRSEDTAVYYCARDGVDYGDYRPDYWGQGTLVTVSS
VL: EIVLTQSPGTLSLSPGERATLSCRASQSVSSNYLAWYQQKPGQAPRLLIYGASSRATGIPERFSGSGSGTDFTLTISRLEPEDFAVYYCQQYGSSLYTFGQGTKLEIKR
B3: mAb14255 (antibody, V domains shown)
VH: QVQLQESGPGLVKPSETLSLTCTVSGGSISGYYWSWIRQPPGKGLDWIGYIYYRGNTNYNPSLKSRVTISVDTSNNQFSLKLSSVTAADTAVYYCARYGEGYGDASGYHFDYWGQGTLVTVSS
VL: QSALTQPASVSGSPGQSITISCTGTSSDVGSYNLVSWYQQHPGKAPKLMIYEDSKRPSGVANPFSGSKSGNTASLTISGLQAEDEADYYCSSYAGSSTWVFGGGTKLTVLG
B4: mAb14284 (antibody, V domains shown)
VH: QITLKESGPTLVKPTQTLTLTCTFSGFSFSTSGVGVGWIRQPPGKTLEWLALIYWDDDKRYSPSLKSRLTITKDTSKNQVVLTMTNMDPVDTATYFCAHHGIPTIFGYWGQGALVTVSS
VL: QSALTQPASVSGSPGQSITISCTGTSSDLGVFNYVSWYQQHPGKAPKLMIYEVTNRPSGVSNRFSGSKSGNTASLTISGLQAEDEADYYCSSYTTSSTVFGGGTKLTVLG
B5: mAb14235 (antibody, V domains shown)
VH: QITLKESGPTLVKPTQTLTLTCTFSGFSLNTGGVGVGWIRQPPGNALEWLALIYWDDDKRYNPSLKTRLTISKDTSKNQVVLTMTNMDPVDTATYFCAHLTIAVIVDFWGQGTLVTVSS
VL: B4 VL with G24A, L29V, V31T, F32Y, Y38F, Q40H, S96T, T98I
B6: mAb14312 (antibody, V domains shown)
VH: EVQLVESGGGLVQPGGSLRLSCAASGFTVSRSYMTWVRQAPGKGLEWVSVIFTGGRTDHADSVKGRFTISRHNSKNTLYLQMNSLRTEDTAVYYCARVAIVGATGAFDIWGQGTMVTVSS
VL: QSVLTQPPSVSGAPGQRVTISCTGSSSNIGAGDDVHWYQQLPGTAPKLLIYGNSNRPSGVPDRFSGSKSGTSASLAITGLQAEDEADYYCQSYDSSLSGSVVFGGGTKLTVLG
B7: mAb14257 (antibody, V domains shown)
VH: B6 VH with T35N, I51V, R56T, D58K, A60T, H72D, K75M, T87P, G102E, A103T
VL: B6 VL with S25T, G32D, D33F, L41F, N53H, S54T, V60I
B8: mAb14294 (antibody, V domains shown)
VH: EVQLVESGGGLVQPGGSLRLSCAASGFTFSNHWMDWVRQAPGKGLVWVSRINSDGSSTDYADSVRGRFTMSRDNAKNTLYLQMSSLRAEDTAVYYCAREGMIFGAVIIPGWYFDLWGRGALVTVSS
VL: EIVLTQSPGTLSLSPGERATLSCRASQSVSSSQLAWYQQKPGQAPRLLIYGASSRATGIPDRFSGSGSGTDFTLTISRLEPEDFAVYYCQQYDSFGQGTKLEIKR
B9: mAb14313 (antibody, V domains shown)
VH: EVQLVESGGGLVQPGRSLRLSCVASGFTFDDSAMHWVRQPPGKGLEWVSGISWNSGIIGYAESVKGRFIISRDNAKNSLFLHMRGLRPEDTAVYYCARDRLELSYYYYGMDVWGQGTTVTVSS
VL: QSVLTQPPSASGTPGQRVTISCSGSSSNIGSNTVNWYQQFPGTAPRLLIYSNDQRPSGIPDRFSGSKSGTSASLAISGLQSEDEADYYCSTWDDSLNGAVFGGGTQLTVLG
B10: mAb14289 (antibody, V domains shown)
VH: QVQLVQSGPEVKKPGASVKVSCKASGYTFTSYAISWVRQAPGQGLEWMGWISAYNGNTNYAQKLQGRVTMTTDTFTSTAYMELRSLRSDDTAVYYCAVPADHITFDYWGQGTLVTVSS
VL: EIVLTQSPGTLSLSPGERATLSCRASQSVSSYLAWYQQKPGQAPRLLIHGASSRATGIPDRFSGSGSGTDFTLTISRLEPEDFAVYYCQQYGSSFLTFGGGTKVEIKR
B11: mAb14247 (antibody, V domains shown)
VH: QITLKESGPTLVKPTQTLTLTCTFSGFSLSTSAVGVGWIRQPPGKALEWLALIYWDDDKRYSPSLKSRLTITKDTSKNQLVLTMTNVDPVDTATYYCAHHTIQLIFDYWGQGTLVTVSS
VL: QSALTQPASVSGSPGQSITISCTATSSDVGNYNYVSWYQQHPGKAPKLMIYEVSNRPSGVSNRFSGSKSGNTASLTISGLQAEDEADYYCSSYTSSSTPLVFGGGTKLTVLG
B12: mAb14283 (antibody, V domains shown)
VH: QVQLQESGPGLVKPSGTLSLTCDVSGGSISSNNWWSWVRQRPGKGLQWIGEIYHNENTNYNPSLKSRVIMSIDKSKNQFSLKLTSVTAADTAVYYCARGDVLDWFDPWGQGTLVTVSS
VL: QSALTQPASVSGSPGQSTTISCTGTSSDVGGYNYVSWYQQYPGKAPKLMIYDVTNRPSGVSHRFSGSKSGNTASLTISGLQAEDEADYYCSSYTSSSTVIFGGGTKLTVLG
B13: mAb13458 (antibody, V domains shown)
VH: EVQLVESGGGLVQPGRSLRLSCAASGFTFDDYAMHWVRQAPGKGLEWVSGISWNSGSIGYADSVKGRFTISRDNAKNSLYLQMNSLRAEDTALYYCAKDIGITTPYWGQGTLVTVSS
VL: AIQMTQSPSSLSASVGDRVTITCRASQDIRNDLGWYQQKPGKAPKLLIYSASSLQTGVPSRFSGSGSGTDFTLTISSLHPEDFATYYCLQDYWYTWTFGQGTKVEIKR
B14: mAb13459 (antibody, V domains shown)
VH: B13 VH
VL: B13 VL with W93N, T95V

Target: SARS-COV-2 RBD extracellular domain expressed with a C-terminal myc-myc-hexahistidine tag (SARS-COV-2 RBD-mmH) (SARS-CoV-2)
Test: SPR Biacore, mAb captured on anti-hFc, RBD-mmH analyte, 37 C

Row | Binder | Kd | koff | kon | t½
1 | B1 | 0.796 nM | 0.0017 s⁻¹ | 2.14e+06 M⁻¹ s⁻¹ | 6.8 min
2 | B2 | 2.26 nM | 0.000985 s⁻¹ | 435000 M⁻¹ s⁻¹ | 11.7 min
3 | B3 | 2.76 nM | 0.00535 s⁻¹ | 1.94e+06 M⁻¹ s⁻¹ | 2.2 min
4 | B4 | 0.94 nM | 0.000605 s⁻¹ | 644000 M⁻¹ s⁻¹ | 19.1 min
5 | B5 | 1.37 nM | 0.00109 s⁻¹ | 793000 M⁻¹ s⁻¹ | 10.6 min
6 | B6 | 0.631 nM | 0.000988 s⁻¹ | 1.57e+06 M⁻¹ s⁻¹ | 11.7 min
7 | B7 | 2.34 nM | 0.00762 s⁻¹ | 3.26e+06 M⁻¹ s⁻¹ | 1.5 min
8 | B8 | 0.984 nM | 0.00059 s⁻¹ | 600000 M⁻¹ s⁻¹ | 19.6 min
9 | B9 | 0.921 nM | 0.00259 s⁻¹ | 2.81e+06 M⁻¹ s⁻¹ | 4.5 min
10 | B10 | 1.46 nM | 0.00176 s⁻¹ | 1.2e+06 M⁻¹ s⁻¹ | 6.5 min
11 | B11 | 1.95 nM | 0.00163 s⁻¹ | 832000 M⁻¹ s⁻¹ | 7.1 min
12 | B12 | 1.17 nM | 0.00179 s⁻¹ | 1.54e+06 M⁻¹ s⁻¹ | 6.4 min
13 | B13 | 1.54 nM | 0.00139 s⁻¹ | 907000 M⁻¹ s⁻¹ | 8.3 min
14 | B14 | 2.6 nM | 0.00204 s⁻¹ | 786000 M⁻¹ s⁻¹ | 5.7 min
